Data: patent EP4814000A1

Experiments:
[1] = biological target: RSV B-003m-P215S-1×GCN4t-C102A-C362S (RSV B); experiment: flow cytometry, Expi293F cells, Lipofectamine 2000-mRNA; mRNA RQ2
RSV B-003m-P215S (RSV B) = experiment: as above
[2] = biological target: RSV B-003m-P215S-1×GCN4t-D92E (RSV B); experiment: as above
[3] = biological target: RSV B-003m-P215S-1×GCN4t-ori_linker (RSV B); experiment: as above
[4] = biological target: RSV B-003m-P215S-1×GCN4t-G46S (RSV B); experiment: as above
[5] = biological target: RSV B-003m-P215S-1×GCN4t-C155S-C290S (RSV B); experiment: as above
[6] = biological target: RSV B-003m-P215S-1×GCN4t (RSV B); experiment: as above
[7] = biological target: RSV B-003m-P215S-1×GCN4t-C486D-C489D (RSV B); experiment: as above
[8] = biological target: RSV B-003m-P215S-1×GCN4t-F190S (RSV B); experiment: as above
011m-Cys-P215S-1×GCN4t = experiment: flow cytometry, Expi293F cells, Lipofectamine 2000-mRNA
[9] = biological target: 010m-Cys-P215S-1×GCN4t (RSV); experiment: as above
[10] = biological target: 009m-Cys-P215S-1×GCN4t (RSV); experiment: as above
013m-Cys-P215S-1×GCN4t = experiment: as above
[11] = biological target: 007m-Cys-P215S-1×GCN4t (RSV); experiment: as above
[12] = biological target: 008m-Cys-P215S-1×GCN4t (RSV); experiment: as above
012m-Cys-P215S-1×GCN4t = experiment: as above
003m-P215S-1×GCN4t (RSV) [13] = experiment: as above
[14] = biological target: wild-type RSV B F (RSV B); experiment: flow cytometry, Expi293F cells, Lipofectamine 2000-mRNA; row WT-RQ1
[15] = biological target: 003m-P215S-DELL-1×GCN4t (RSV); experiment: flow cytometry, Expi293F cells, Lipofectamine 2000-mRNA
[16] = biological target: 003m-P215S-NAG-1×GCN4t (RSV); experiment: as above
[17] = biological target: 003m-P215S-KST-1×GCN4t (RSV); experiment: as above
003m-P215S-1×GCN4t (RSV) [18] = experiment: as above; remark: listed apart in the source
003m-P215S-1×GCN4t (RSV) [19] = experiment: flow cytometry, Expi293F cells, Lipofectamine 2000-mRNA; row 003m-P215S-1×GCN4t-opti1
007m-Cys (RSV) = experiment: flow cytometry, Expi293F cells transfected with the antigen's mRNA
008m-Cys (RSV) = experiment: as above
003m-DS (RSV) = experiment: as above
010m-Cys (RSV) = experiment: as above
009m-Cys-ΔCys (RSV) = experiment: as above
DS-Cav1 (RSV) = experiment: as above
009m-DS (RSV) = experiment: as above
010m-DS (RSV) = experiment: as above
007m-Cys-ΔCys (RSV) = experiment: as above
008m-Cys-ΔCys (RSV) = experiment: as above
009m-Cys (RSV) = experiment: as above
007m-DS (RSV) = experiment: as above
003m-ΔCys (RSV) = experiment: as above
008m-DS (RSV) = experiment: as above
010m-Cys-ΔCys (RSV) = experiment: as above
[20] = biological target: RSV B-003m-P215S-1×GCN4t-C102A-C362S (RSV B); experiment: flow cytometry, Expi293F cells, Lipofectamine 2000-mRNA; mRNA RQ3
[21] = biological target: RSV B-003m-P215S-1×GCN4t-G46S (RSV B); experiment: as above

Row | Substance | MFI [1] | MFI (RSV B-003m-P215S (RSV B)) | MFI [2] | MFI [3] | MFI [4] | MFI [5] | MFI [6] | MFI [7] | MFI [8] | MFI (011m-Cys-P215S-1×GCN4t) | MFI [9] | MFI [10] | MFI (013m-Cys-P215S-1×GCN4t) | MFI [11] | MFI [12] | MFI (012m-Cys-P215S-1×GCN4t) | MFI (003m-P215S-1×GCN4t (RSV) [13]) | MFI [14] | MFI [15] | MFI [16] | other results
1 | AM14-AF488 (antibody) | 3940 | 521000 | 792 | 286 | 3670 | 36300 | 5300 | 8080 | 11300 | 7710 | 8650 | 6450 | 7930 | 7680 | 9780 | 9390 | 6700 | 201000 | 31400 | 45700 | MFI [17]: 33800; MFI (003m-P215S-1×GCN4t (RSV) [18]): 21600; MFI (003m-P215S-1×GCN4t (RSV) [19]): 3380; MFI (007m-Cys (RSV)): 610000; MFI (008m-Cys (RSV)): 258000; MFI (003m-DS (RSV)): 10100; MFI (010m-Cys (RSV)): 333000; MFI (009m-Cys-ΔCys (RSV)): 148000; MFI (DS-Cav1 (RSV)): 122000; MFI (009m-DS (RSV)): 147000; MFI (010m-DS (RSV)): 107000; MFI (007m-Cys-ΔCys (RSV)): 430000; MFI (008m-Cys-ΔCys (RSV)): 181000; MFI (009m-Cys (RSV)): 247000; MFI (007m-DS (RSV)): 144000; MFI (003m-ΔCys (RSV)): 8380; MFI (008m-DS (RSV)): 139000; MFI (010m-Cys-ΔCys (RSV)): 153000; MFI [20]: 4430; MFI [21]: 4100
2 | D25-AF488 (antibody) | 15700 | 379000 | 2480 | 556 | 4110 | 67300 | 7110 | 8130 | 13100 | 10300 | 13400 | 11500 | 14600 | 12800 | 15700 | 15800 | 12200 | 132000 | 35700 | 33900 | MFI [17]: 31600; MFI (003m-P215S-1×GCN4t (RSV) [18]): 32800; MFI (003m-P215S-1×GCN4t (RSV) [19]): 5680; MFI (007m-Cys (RSV)): 229000; MFI (008m-Cys (RSV)): 196000; MFI (003m-DS (RSV)): 37100; MFI (010m-Cys (RSV)): 252000; MFI (009m-Cys-ΔCys (RSV)): 136000; MFI (DS-Cav1 (RSV)): 159000; MFI (009m-DS (RSV)): 154000; MFI (010m-DS (RSV)): 118000; MFI (007m-Cys-ΔCys (RSV)): 369000; MFI (008m-Cys-ΔCys (RSV)): 173000; MFI (009m-Cys (RSV)): 199000; MFI (007m-DS (RSV)): 159000; MFI (003m-ΔCys (RSV)): 16200; MFI (008m-DS (RSV)): 150000; MFI (010m-Cys-ΔCys (RSV)): 136000; MFI [20]: 16000; MFI [21]: 4220
